experiment: soluble on expression in E. coli; label from the status in PepcDB or PDB records

Question: Which “soluble on expression in E. coli” value does the source give for “GPGSMPERCIGITTVQVGHIVGRGGSTLKGIQERTGATLCIVENGLQVKITADDAAKVAAAEAEVHKIVASQQNPDYEGPCGARLRKEAVELGQKRSKLFEEATRMREAGDHEGANKLVAMAKKAGEDMKARHREAALAIAKHNNEEKGKGPNYFDMHGLHLEEAMEMLKVRMSKLEEKPVGSTTAFEVIPGAGHHSAPGTQKLKRATLEYVQWKGYPCEEVNAGAFLVKVPGLGEGVLSKPEDGDKVPTKPKESATGVANKPKASGSAAASKSKAQSCCACM” here?
Answer: The value was “soluble”.

Question: For “MANQKQVLDVQVSKGITTAQSNEHLRDRSEKAEKYAMSKGNYDPTRKRLNFEIAPGGKIHPIDTSRSIPKRMADILSHRGIKDPNEGLLEPKYRTVVNIIFGGSRQRMQELAFGTQQVDFEKGADNTRIERKRDIERWAKDVYSFVCGRYGEQNIAAFIVHLDELNPHIHCTLLPIKDSRFAYKEIFAGKDKFEYSARMKQLHTDFFAEVNTKWGMSRGTSISETGARHRTTEEYRRMLSEECTTIEDNIKLHQQVLGELQSDIRLAERRVKGLTTMVSNLEKQKTEKETLLSAAEYNLKENKGNAAELAIQIQMLEKELQGIIRQLADKQEKLQTADRQLIELKKDMGAIEERTEELKEEAYQYSRDVHSKVDSLFKDVLLESVISEYRNASAQMNVSERQLFDGSLVQSIAERGTEIMHCATMLFLGMVDDATTFAESHGGGGGGSDLKWGRDEDEDNRAWALRCMRMASRMMRSTIGKKSKRLEHHHHHH”, which “soluble on expression in E. coli” value is on record?
Answer: Its value is “not soluble”.

Question: Which “soluble on expression in E. coli” value does the source give for “GATNEVNVDAIKQLYMDCKNEADKFDVLTELYGLMTIGSSIIFVATKKTANVLYGKLKSEGHEVSILHGDLQTQERDRLIDDFREGRSKVLITTNVLARGIDIPTVSMVVNYDLPTLANGQADPATYIHRIGRTGRFGRKGVAISFVHDKNSFNILSAIQKYFGDIEMTRVPTDDWDEVEKIVKKVLKD” here?
Answer: Its value is “soluble”.

Question: Which “soluble on expression in E. coli” value does the source give for “MTKLGYVMTKSSAKNFKIYINGSAKGFKNIIISGAKAWNPSPYLNTVSIGNDVRPNYTVSSSGTNKGSVLAVCNTTYYKSNKLISKNEITLYKGFRSLSTNHKIETIVHEFGHGFGLGHVKTKNAIMLDKGFINKTKPQTDDFNGIKALYKLEHHHHHH” here?
Answer: Its value is “soluble”.

Question: Which “soluble on expression in E. coli” value does the source give for “MSLSDGYHRSPSSRVPRIEGCQHTADASPSDATGPRRHAMTAHNREPVDYLAGEMPLHRYCAHHAAQTPERIALLWYGRTICWRELDQLSTRLAVQFQRLGVARGDRVALFLQNCPQAILAHLAAAKLGAIAVPCLPLSRQHELRDQLTDCGAKILIAAADLMPIVDAARPGTAIATVITTRYADLQPAQPACRKALAVPPELIAADAASAPAGRGQAGSGQFDLMQLLAEPVDVAERNAVAAIQVDLDEVALMIYTSGTTGRPKGAMLTHRNALYKTAVTVQMSGIHAADVLLAAAPLSHIAGMLMGMNLMLYAGAPTILLFRFDPLAVLQAIDRYCVTWWYSMTPMNLAVMAHPEAGQYRMASLVNNPCTSFGAPLTEAIADRWRAFAGPKCRIYEAAYGLSETHTCDTVTPPDAPRWGWHGKIVPQTEVRIVDPRTGTALPPGRSGEITIRSPGVFRGYWRRDEATRAALQDGFLRTGDIGQVSPDGYLQWQGRLKELIKVSGYSVFPEDVEALLSRHPAIRQVAVTPLPDPDKGEVVCAHVVRMSGTALTEAELIAWSRENMAPYKVPRRVRFHDALPATVTGKILRRLLREEAAVAEGHHHHHH” here?
Answer: Its value is “soluble”.

Question: For “MAAQLSEIEVKGVKIPLIYEKSTLMPAVNLQIVFTHAGSITDEIPGLASLSARIFNEGTKTLGSVEFAKELENRAISLSVGSGNETLVFDMSALKSEYLEGLRLTRELLRQPNFTKEALSKVKTDIKASLLRKESDFDYVAQVELHRRLFEGTPLEYPSMGNRESIEKITLKEVEEFWKKRGVLRRAIVLVGGDVELEEVKKDLLSLLSVLPLGEEGELVRYEAKGDLEVKSVIKNTQQAYIYFGSPFSVKNLREDSYKAKVAAFVLGSSGFGSRMMEEIRVKRGLAYSAYWRISLSKSVNYSLGYLQTKLENEQQAIGVVRELIEEFLQKGITEKELEGAKQFLLGSEPLRNETLSQRLSSAFSAYYRGLPLDFAKEELHKIEALTLEEINAYIKEHQELLQLSFSVVTAPKE”, which “soluble on expression in E. coli” value is on record?
Answer: The value was “not soluble”.

Question: For “HHHHHHHHHHMLPTPYVKCDYDKVYEPAEDSFLILDCLEKEHDFLKQKFGNRLAIVCEIGSGSGIVTTFLMQNKIIPQENSIHLAVDINPWALEATLDTAKLNSCKSSFLEVIQADLNSSIRNNQVDVLIFNPPYVPAECVPDVPGSREEADQWLDLALLGGKDGMAITDKLLRQLEQILSPDGVAYILFCARNKPKEVIKRFVDTYKWNVKLIETRKAGWEVLSVYSFTR”, which “soluble on expression in E. coli” value is on record?
Answer: Its value is “not soluble”.

Question: With “MGSDKIHHHHHHMTPNIYQQLGLKKVINACGKMTILGVSSVAPEVMQATARAASAFVEIDALVEKTGELVSRYTGAEDSYITSCASAGIAIAVAAAITHGDRARVALMPDSSGMANEVVMLRGHNVDYGAPVTSAIRLGGGRIVEVGSSNLATRWQLESAINEKTAALLYVKSHHCVQKGMLSIDDFVQVAQANHLPLIVDAAAEEDLRGWVASGADMVIYSGAKAFNAPTSGFITGRKTWIAACKAQHQGIARAMKIGKENMVGLVYALENYHQGQTTVTAAQLQPVAEAISAIHGLYADIEQDEAGRAIWRIRVRVNASELGLNAQDVEAQLRGGEIAIYARKYQLHQGVFSLDPRTVAEGEMALIVARLREIAEHAAD” as the sequence, how does the “soluble on expression in E. coli” value read?
Answer: The value was “not soluble”.

Question: Which “soluble on expression in E. coli” value does the source give for “MQSATDVAEYCKYDGFDGLKRAISLSDEEILNELDIAHLRGRGGAAYPLGKKWRHLYHAKGTTKYIVCNADEGEPGTFKDKVLLSEDPLSVIEGMIIAGYLFSAKAGYIYMRGEYRRIQKTFQEALDNARQAGFLGENILGIEGFNYDITIISGAGAYICGENSALLNSIEGKTGRPRVKPPHLADVGLYLQPTLVNNVESFASVPVILREGGQAFLEMGTADGGGTKLICLSGHIKNRGLYEVNLGTPLEEIIYGEQYGGGSATGRALKFIHFGGQSGPIGAVATLRDCLYSYEDLWAHDLSVGSGAIVVMDDSVNVVDYLVHVAAFFAHESCGKCTPCRLGTTRILELLSKFNRNEATASDLPRLEKMLTHVTRLSACGLGQSVANPMKSALALFPEEFETTAETEIYATSKGGWLEHHHHHH” here?
Answer: Its value is “not soluble”.

Question: Which “soluble on expression in E. coli” value does the source give for “MHHHHHHAADPPPVHDTDGHELRADANYYVLSANRAHGGGLTMAPGHGRHCPLFVSQDPNGQHDGFPVRITPYGVAPSDKIIRLSTDVRISFRAYTTCLQSTEWHIDSELAAGRRHVITGPVKDPSPSGRENAFRIEKYSGAEVHEYKLMSSGDWCQDLGVFRDLKGGAWFLGATEPYHVVVFKKAPPA” here?
Answer: Its value is “soluble”.

Question: For “MTPLSSPLSQYWQTVVERLPEGFTETSLSAQAKSVLTFSDFALDSVIAHPEWLAELESASPQADEWRHYAGWLQEALAGVCDDASLMRELRLFRRRIMVRIAWAQTLSLVDDETILQQLSHLAETLIVGARDWLYAACCREWGTPCNPQGVPQPLLILGMGKLGGGELNFSSDIDLIFAWPEHGETRGGRRELDNAQFFTRLGQRLIKALDQPTMDGFVYRVDMRLRPFGDSGPLVLSFAALEDYYQEQGRDWERYAMVKARLMGDNDDAWSRELRAMLRPFVFRRYIDFSVIQSLRNMKGMIAREVRRRGLKDNIKLGAGGIREIEFIVQVFQLIRGGREPSLQSRSLLPTLDAIAALHLLPENDVAQLRVAYLFLRRLENLLQSINDEQTQTLPADDLNRARLAWGMKAENWPQLVGELTDHMANVRRVFNELIGDDEADTPQEEERSEPWREVWQDALQEDDSTPVLAHLADEDRRQVLTLIADFRKELDKRPIGPRGRQVLDQLMPHLLADVCSREDAAVTLSRITPLLAGIVTRTTYLELLSEFPGALKHLIMLCAASPMIASQLARYPLLLDELLDPGTLYQPTATDAYRDELRQYLLRVPEEDEEQQLEALRQFKQAQLLRIAAADIAGTLPVMKVSDHLTWLAEAMIDAVVQQAWTQMVARYGQPAHLDERQGRGFAVVGYGKLGGWELGYSSDLDLIFLHDCPMDVMTNGEREIDGRQFYLRLAQRIMHLFSTRTSSGILYEVDARLRPSGAAGMLVTSADAFADYQQHEAWTWEHQALVRARVVYGDPQLTSQFDAVRRTIMTTARDGKTLQTEVREMREKMRAHLGNKHRDRFDIKADEGGITDIEFIAQYLVLRYAHEKPKLTRWSDNVRILELLAQNGIMDEHEAQALTVAYTTLRDELHHLALQELPGHVAQTCFSKERALVQASWRKWLVAV”, which “soluble on expression in E. coli” value is on record?
Answer: The value was “soluble”.

Question: With “GPGSMERYAFAEDYKNARGIPRVEYISDMATFVKNNGGADALISRLILDSSKYEHTEKRLVSSMANLDHKIPTIKKTLHALNFLKKRLQEDQTPVRSYYCLTDAVFGEAEVVPQETVHLWMGAKVMVEYTFDEALQLLEKNLANAETNLKATKEDLAWVQEQMTNLQINISRVYNYDLKNKRTNGGAAEPSA” as the sequence, how does the “soluble on expression in E. coli” value read?
Answer: Its value is “soluble”.

Question: With “MTRNGTTSLQHDEMDTTSPPSGSGSGTAPPTTATSPPDYATAATLRSTPAQMSAAITVDLVVAAQREANFLRMIDRKAPLLYEPDVVNHALRRYETFWLPMQAAHPDLNVIPPLDVHWVWHTHMLSPIHYQEDCEKLVGKIIDHKLLSSDEIQKRYDSSVRAWDSYCSAEPYDFLASQTPPTAYKTKCNYDIAGAVQRQRNFNYQVSLPHYTSAKFLSDAVKRYIQFLLLKQTYADQFLTPCYDFDIIWHTHQVHPSSYLRDCTAIFGSLLKHDDTVNDRTKGSKLLKGEALTKKLWTTHFDEPFWRRGCMFRGHNAPAFLGFESQDLACISYGDIHVPSISLKDIPVQREQLRLKLCYGNKKVTTFNADLSQKQVTKSGFSLVWQPTESSTCASIVKFPFERRAAKDLTVELEIFDKMFLQRKDLIKLIGKATLDQLLPPSNSKSAHNVAELQLKASKDSEFTAKVNVTTSVNLNRELQLLVGDFVERQLSADSHLAYLAQCASLNRGALNANSTVHIASHSMVDTRDGTKYTVQVIHSAPLLLSMILVYGREQRLLSMAHLIGADSLPSRDQLDNNLVPFLPHLSNAEERAFVILNKEGDYAIIKGKWSGFSRKQSATKGQKAKPGNPGRLHVDAFNLLKNTVQKLEVPSADGSALFLIGDAQARLPGKRIECRSTNTAEQIASIFCVATLFVLCNPDKIRSRNDSTSVGHQAHKWPLTLACGYGRQLPTNRLLLSADQDGLGGCEIAPMLMCGVGCDGAACGACGACGACGACGGCGGCGGCGGCGGCG” as the sequence, how does the “soluble on expression in E. coli” value read?
Answer: The value was “not soluble”.

Question: With “MAFLKIDNGELLKNIRQFAKKNGLTLAEVATLAGLSASAIYSWKKHTPSVGTLKEVAQVLGTSYTKLVGKDKEPTAKATNAAAVDLKKVIENKKNQFEYDGQPITNEQMKIIRNVLKSMFKTPRL” as the sequence, how does the “soluble on expression in E. coli” value read?
Answer: The value was “not soluble”.

Question: With “VIIPDINLLLYAVITGFPQHRRAHAWWQDTVNGHTRIGLTYPALFGFLRIATSARVLAAPLPTADAIAYVREWLSQPNVDLLTAGPRHLDIALGLLDKLGTASHLTTDVQLAAYGIEYDAEIHSSDTDFARFADLKWTDPLRE” as the sequence, how does the “soluble on expression in E. coli” value read?
Answer: Its value is “not soluble”.

Question: For “MKLNFSLYRYNPDVDNKPYMKDYILEVEEGSDMMVLDALILLKEQDPSIAFRRSCREGVCGSDGLNMNGKNGLACITPLSALKGDKIVIRPLPGLPVVRDLIVDMTQFYDNYAKVKPFLIADDALPPSRENLQSPEERAHLDGLYECIMCACCTTSCPSFWWNPDKFIGPAGLLAAYRWLIDSRDTATDERLSNLDDAFSVFRCHGIMNCVSVCPKGLNPTKAIGHIKSMLINRSV”, which “soluble on expression in E. coli” value is on record?
Answer: Its value is “not soluble”.

Question: For “MPIKIPDNLPAKEILTKENIFVMAESRAYSQDIRPLKIVILNLMPIKQTTETQLLRLLGNTPLQVEVSFMYTDTHISKNTSYDHLQTFYQTIDEVKQKKFDGMIITGAPIETLPYDEVDYWNELKQIMEWSKTNVTSTLHICWGAQAGLFYHYGVEKVPLPEKQFGVYPHKINVPNVKLLRGFDDEFYVPHSRHTDINKAQIEAHPDLEILSESEQAGVYIVASKDGKQIFVTGHSEYDACTLQQEYERDRARGLNIQVPENYFPNDDATRKPLLRWRAHSYLLFSNWLNYYVYQETPYDLSRMAGDPLEHHHHHH”, which “soluble on expression in E. coli” value is on record?
Answer: The value was “soluble”.

Reference: the DeepSol protein solubility set
